In US20260026495A1, “STABLE PLASMIN COMPOSITIONS FOR ORGAN PRESERVATION AND RECONDITIONING” (Grifols Worldwide Operations Limited, priority 2022, published 2026):

Experiments:
[1] = Plasmin activity after storage, S-2403 chromogenic substrate; format: biochemical; conditions: plasmin 1 mg/mL stored at 0° C. over a 24-hour period; FIG. 4A
Method: To assess the compatibility of plasmin as an additive in Cold Storage Solutions, the activity of plasmin at a concentration of 1 mg/mL was assessed at multiple time points whilst stored at 0° C.
(white bars), 25° C. (black bars), or 37° C. (striped bars) for a 24 hour period. The commercial S-2403 plasmin specific chromogenic substrate was used to assess activity at each of the indicated times.
Significant plasmin activity is maintained when formulated with these excipients and diluted into organ preservation and reconditioning solutions. The commercial […] plasmin specific chromogenic substrate was used to assess activity at each of the indicated times.

plasmin = assay: Plasmin proteolytic activity in presence of TXA, S-2403 chromogenic substrate; format: biochemical, human; conditions: plasmin 1 mg/mL; TXA 0.001 mM to 100 mM; FIG. 3
From the text: S-2403 is a commercially available, plasmin specific chromogenic substrate.

plasmin
plasmin activity (kinetics) during storage [1]: unaltered kinetics

NC[C@H]1CC[C@H](C(=O)O)CC1 [TXA, tranexamic acid]
proteolytic activity of plasmin (kinetics) (plasmin): unaltered kinetics
